For two substances, % apoptosis of BT474 cell population (Hoechst 33342 cell cycle analysis, 3 days), proportion of S-phase cells (BT474, 3 days) and Kd results are on record in patent EP1106183A2.

Assay [1] has as its target human ErbB2 on BT474 human breast tumor cells (human) (UniProt P04626). In words: cell-based or functional assay.
For assay [2] the target is unchanged. Put plainly: Scatchard analysis; 125I-labelled antibody on BT474 cell monolayers, 4 h on ice.

In assay [1], “anti-ErbB2 IgG1κ murine monoclonal antibody 4D5” registered a % apoptosis of BT474 cell population (Hoechst 33342 cell cycle analysis, 3 days) of 41.9% and a proportion of S-phase cells (BT474, 3 days) of 5.4%. Further, the dissociation constant Kd in assay [2] worked out at 6.5 nM.

In assay [1], “anti-ErbB2 IgG1κ murine monoclonal antibody 7C2” showed a % apoptosis of BT474 cell population (Hoechst 33342 cell cycle analysis, 3 days) of 60.5% and a proportion of S-phase cells (BT474, 3 days) of 64.9%.

What is called Kd is the equilibrium constant for the complex coming apart.
